Measured values as given in the supplement of paper PMC7877785.
± gives the uncertainty stated by the source.

Assay: self-splicing fitness, log relative to wild type (ln ratio); higher = more splicing; Tetrahymena group I intron in knt gene, E. coli kanamycin selection, DiMSum; sequences stand for … in CUCUCU…GGAGGGAAAAGUUAUCAGGCAUGCACCUGGUAGCUAGUCUUUAAACCAAUAGAUUGCAUCGGUUUAAAAGGCAAGACCGUCAAAUUGCGGGAAAGGGGUCAACAGCCGUUCAGUACCAAGUCUCAGGGGAAACUUUGAGAUGGCCUUGCAAAGGGUAUGGUAAUAAGCUGACGGACAUGGUCCUAACCACGCAGCCAAGUCCUAAGUCAACAGAUCUUCUGUUGAUAUGGAUGCAGUUCACAGACUAAAUGUCGGUCGGGGAAGAUGUAUUCUUCUCAUAAGAUAUAGUCGGACCUCUCCUUAAUGGGAGCUAGCGGAUGAAGUGAUGCAACACUGGAGCCGCUGGGAACUAAUUUGUAUGCGAAAGUAUAUUGAUUAGUUUUGGAGUACUCGUGGUCG
In short: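 Colonies from six replicate transformations of E. coli BL21(DE3) were pooled and amplicon-sequenced on an Illumina HiSeq 2500. The library placed an intron with all eight P1ex-region nucleotides randomised inside the knt kanamycin-resistance gene on pET-22b(+), and cells grew overnight at 37°C or 30°C on LB agar with or without 25 μg/mL kanamycin (plus 100 μg/mL carbenicillin, 50 μM IPTG, 0.2% rhamnose). Fitness is the DiMSum error-weighted combination of wild-type-normalised replicate fold changes, kanamycin versus none.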

GGAAAGCAAUAUUACGGCUA
self-splicing fitness (ln) (30 °C): -0.34 ± 0.2
self-splicing fitness (ln) (37 °C): -0.931 ± 0.18

UGCAAGCAAUAUUACGCGCC
self-splicing fitness (ln) (30 °C): -1.18 ± 0.098
self-splicing fitness (ln) (37 °C): -0.427 ± 0.11

UUGCAGCAAUAUUACGUUGG
self-splicing fitness (ln) (30 °C): -2.68 ± 0.15
self-splicing fitness (ln) (37 °C): -2.42 ± 0.18

AAUGAGCAAUAUUACGGCUC
self-splicing fitness (ln) (30 °C): -1.82 ± 0.23
self-splicing fitness (ln) (37 °C): -2.03 ± 0.38

UGCCAGCAAUAUUACGUAAA
self-splicing fitness (ln) (30 °C): -1.24 ± 0.093
self-splicing fitness (ln) (37 °C): -0.956 ± 0.12

CAAAAGCAAUAUUACGUUGG
self-splicing fitness (ln) (30 °C): -2.47 ± 0.088
self-splicing fitness (ln) (37 °C): -1.48 ± 0.1

GCCGAGCAAUAUUACGGCCU
self-splicing fitness (ln) (30 °C): -2.54 ± 0.42
self-splicing fitness (ln) (37 °C): -1.56 ± 0.35

GCUCAGCAAUAUUACGAGUU
self-splicing fitness (ln) (30 °C): -1.85 ± 0.079
self-splicing fitness (ln) (37 °C): -0.858 ± 0.09

CUGAAGCAAUAUUACGUGAG
self-splicing fitness (ln) (30 °C): -0.269 ± 0.044
self-splicing fitness (ln) (37 °C): 0.305 ± 0.065

CGGAAGCAAUAUUACGCGUC
self-splicing fitness (ln) (30 °C): -2.62 ± 0.14
self-splicing fitness (ln) (37 °C): -3.1 ± 0.37

AUGUAGCAAUAUUACGAACA
self-splicing fitness (ln) (30 °C): -0.529 ± 0.14
self-splicing fitness (ln) (37 °C): 0.476 ± 0.15

AAUGAGCAAUAUUACGGCAC
self-splicing fitness (ln) (30 °C): -2.9 ± 0.28
self-splicing fitness (ln) (37 °C): -1.27 ± 0.32

CCAGAGCAAUAUUACGUCUU
self-splicing fitness (ln) (30 °C): -3.89 ± 0.21
self-splicing fitness (ln) (37 °C): -3.03 ± 0.2

UGAUAGCAAUAUUACGUCGU
self-splicing fitness (ln) (30 °C): -2.06 ± 0.34
self-splicing fitness (ln) (37 °C): -2.02 ± 0.35

UGACAGCAAUAUUACGGUUU
self-splicing fitness (ln) (30 °C): -1.07 ± 0.059
self-splicing fitness (ln) (37 °C): -0.226 ± 0.073

CCCUAGCAAUAUUACGGGCG
self-splicing fitness (ln) (30 °C): -1.68 ± 0.089
self-splicing fitness (ln) (37 °C): -0.597 ± 0.1

UCAUAGCAAUAUUACGAAGG
self-splicing fitness (ln) (30 °C): -2.69 ± 0.14
self-splicing fitness (ln) (37 °C): -1.31 ± 0.11

GACCAGCAAUAUUACGAGAG
self-splicing fitness (ln) (30 °C): -3.61 ± 0.2
self-splicing fitness (ln) (37 °C): -1.51 ± 0.13

UUGUAGCAAUAUUACGUUAG
self-splicing fitness (ln) (30 °C): -2.36 ± 0.25
self-splicing fitness (ln) (37 °C): -1.28 ± 0.21

GAGAAGCAAUAUUACGACUC
self-splicing fitness (ln) (30 °C): -2.38 ± 0.18
self-splicing fitness (ln) (37 °C): -1.82 ± 0.23

UCUCAGCAAUAUUACGACAU
self-splicing fitness (ln) (30 °C): -2.714 ± 0.018
self-splicing fitness (ln) (37 °C): -1.49 ± 0.034

UGGCAGCAAUAUUACGCUCA
self-splicing fitness (ln) (30 °C): -0.353 ± 0.13
self-splicing fitness (ln) (37 °C): 0.629 ± 0.18

UCUCAGCAAUAUUACGAACU
self-splicing fitness (ln) (30 °C): -1.75 ± 0.17
self-splicing fitness (ln) (37 °C): -1.34 ± 0.21

CCGGAGCAAUAUUACGGUCG
self-splicing fitness (ln) (30 °C): -1.22 ± 0.097
self-splicing fitness (ln) (37 °C): -0.072 ± 0.13

UCGAAGCAAUAUUACGCCGA
self-splicing fitness (ln) (30 °C): -0.786 ± 0.25
self-splicing fitness (ln) (37 °C): -1.16 ± 0.28

GGACAGCAAUAUUACGUAUG
self-splicing fitness (ln) (30 °C): -1.13 ± 0.073
self-splicing fitness (ln) (37 °C): -0.419 ± 0.08

ACAAAGCAAUAUUACGAGUA
self-splicing fitness (ln) (30 °C): -3.03 ± 0.16
self-splicing fitness (ln) (37 °C): -1.7 ± 0.11

GACUAGCAAUAUUACGGUUA
self-splicing fitness (ln) (30 °C): -0.116 ± 0.083
self-splicing fitness (ln) (37 °C): 0.109 ± 0.085

UCUGAGCAAUAUUACGUUUC
self-splicing fitness (ln) (30 °C): -2.44 ± 0.22
self-splicing fitness (ln) (37 °C): -0.767 ± 0.21

CGACAGCAAUAUUACGCGUU
self-splicing fitness (ln) (30 °C): -4.77 ± 0.26
self-splicing fitness (ln) (37 °C): -3.29 ± 0.18

GUAUAGCAAUAUUACGUUCG
self-splicing fitness (ln) (30 °C): -2.09 ± 0.21
self-splicing fitness (ln) (37 °C): -1.53 ± 0.19

GGGGAGCAAUAUUACGAAAU
self-splicing fitness (ln) (30 °C): -3.38 ± 0.47
self-splicing fitness (ln) (37 °C): -2.37 ± 0.39

UAUAAGCAAUAUUACGGAUA
self-splicing fitness (ln) (30 °C): -0.466 ± 0.13
self-splicing fitness (ln) (37 °C): -0.208 ± 0.13

AUCGAGCAAUAUUACGGGGA
self-splicing fitness (ln) (30 °C): -2.83 ± 0.22
self-splicing fitness (ln) (37 °C): -1.18 ± 0.15

CAUUAGCAAUAUUACGUUUG
self-splicing fitness (ln) (30 °C): -2.16 ± 0.1
self-splicing fitness (ln) (37 °C): -1.51 ± 0.13

GGUUAGCAAUAUUACGCGUU
self-splicing fitness (ln) (30 °C): -1.01 ± 0.17
self-splicing fitness (ln) (37 °C): -0.358 ± 0.19

GGCUAGCAAUAUUACGCUCC
self-splicing fitness (ln) (30 °C): -2.32 ± 0.26

CACCAGCAAUAUUACGUGUG
self-splicing fitness (ln) (30 °C): -4.45 ± 0.17
self-splicing fitness (ln) (37 °C): -3.63 ± 0.19

CUACAGCAAUAUUACGUGUG
self-splicing fitness (ln) (30 °C): -1.63 ± 0.055
self-splicing fitness (ln) (37 °C): -0.0421 ± 0.061

UGGUAGCAAUAUUACGGGAU
self-splicing fitness (ln) (30 °C): -3.14 ± 0.36
self-splicing fitness (ln) (37 °C): -2.32 ± 0.28

AGUAAGCAAUAUUACGUGGG
self-splicing fitness (ln) (30 °C): -3.66 ± 0.26
self-splicing fitness (ln) (37 °C): -1.89 ± 0.17

CUCGAGCAAUAUUACGGACU
self-splicing fitness (ln) (30 °C): -2.35 ± 0.19
self-splicing fitness (ln) (37 °C): -1.95 ± 0.26

UGACAGCAAUAUUACGCUUG
self-splicing fitness (ln) (30 °C): -0.879 ± 0.074
self-splicing fitness (ln) (37 °C): -0.702 ± 0.11

ACCGAGCAAUAUUACGUGAU
self-splicing fitness (ln) (30 °C): -3.36 ± 0.13
self-splicing fitness (ln) (37 °C): -2.06 ± 0.12

GUUUAGCAAUAUUACGCGGU
self-splicing fitness (ln) (30 °C): -2.3 ± 0.45
self-splicing fitness (ln) (37 °C): -1.95 ± 0.36

GGGUAGCAAUAUUACGCGCA
self-splicing fitness (ln) (30 °C): -0.0848 ± 0.13
self-splicing fitness (ln) (37 °C): -0.0359 ± 0.14

UUCCAGCAAUAUUACGGAAG
self-splicing fitness (ln) (30 °C): -2.85 ± 0.19
self-splicing fitness (ln) (37 °C): -2.16 ± 0.2

GCGUAGCAAUAUUACGCGCU
self-splicing fitness (ln) (30 °C): -3.31 ± 0.2
self-splicing fitness (ln) (37 °C): -2.84 ± 0.35

UUUCAGCAAUAUUACGUUUG
self-splicing fitness (ln) (30 °C): -1.91 ± 0.086
self-splicing fitness (ln) (37 °C): -1.12 ± 0.1

CAAAAGCAAUAUUACGAUCA
self-splicing fitness (ln) (30 °C): -1.42 ± 0.12
self-splicing fitness (ln) (37 °C): -1.25 ± 0.12

ACUAAGCAAUAUUACGAGAC
self-splicing fitness (ln) (30 °C): -2.89 ± 0.28
self-splicing fitness (ln) (37 °C): -3.24 ± 0.35

GCGUAGCAAUAUUACGAUUC
self-splicing fitness (ln) (30 °C): -0.141 ± 0.098
self-splicing fitness (ln) (37 °C): -0.0224 ± 0.11

UGUAAGCAAUAUUACGUACC
self-splicing fitness (ln) (30 °C): -1.07 ± 0.34
self-splicing fitness (ln) (37 °C): -0.216 ± 0.26

GACCAGCAAUAUUACGCGAG
self-splicing fitness (ln) (30 °C): -1.37 ± 0.16
self-splicing fitness (ln) (37 °C): -0.897 ± 0.13

CCACAGCAAUAUUACGGAAG
self-splicing fitness (ln) (30 °C): -1.87 ± 0.098
self-splicing fitness (ln) (37 °C): -0.76 ± 0.1

UCUUAGCAAUAUUACGGUUG
self-splicing fitness (ln) (30 °C): -3.34 ± 0.32
self-splicing fitness (ln) (37 °C): -2.18 ± 0.43

CUAGAGCAAUAUUACGCCAA
self-splicing fitness (ln) (30 °C): -0.987 ± 0.2
self-splicing fitness (ln) (37 °C): -2.54 ± 0.41

UUAGAGCAAUAUUACGCAUA
self-splicing fitness (ln) (30 °C): -3.06 ± 0.27
self-splicing fitness (ln) (37 °C): -0.817 ± 0.3

UGGCAGCAAUAUUACGUCUU
self-splicing fitness (ln) (30 °C): -0.0989 ± 0.044
self-splicing fitness (ln) (37 °C): 0.494 ± 0.059

GGAAAGCAAUAUUACGCCUA
self-splicing fitness (ln) (30 °C): -1.28 ± 0.18
self-splicing fitness (ln) (37 °C): -0.669 ± 0.23
